Publication doi:10.1101/2021.02.25.432866 (bioRxiv, 2021)

Key:
[1] = biological target: mutant Huntingtin exon 1 fragment with Q71, unlabelled (Q71); assay: FRET or BRET
FRET or BRET = biological target: the molecule itself; assay: FRET or BRET

mutant Huntingtin exon 1 fragment with Q71, unlabelled (Q71), sequence (P42858 whole entry, change not shown, the tested form may be a part): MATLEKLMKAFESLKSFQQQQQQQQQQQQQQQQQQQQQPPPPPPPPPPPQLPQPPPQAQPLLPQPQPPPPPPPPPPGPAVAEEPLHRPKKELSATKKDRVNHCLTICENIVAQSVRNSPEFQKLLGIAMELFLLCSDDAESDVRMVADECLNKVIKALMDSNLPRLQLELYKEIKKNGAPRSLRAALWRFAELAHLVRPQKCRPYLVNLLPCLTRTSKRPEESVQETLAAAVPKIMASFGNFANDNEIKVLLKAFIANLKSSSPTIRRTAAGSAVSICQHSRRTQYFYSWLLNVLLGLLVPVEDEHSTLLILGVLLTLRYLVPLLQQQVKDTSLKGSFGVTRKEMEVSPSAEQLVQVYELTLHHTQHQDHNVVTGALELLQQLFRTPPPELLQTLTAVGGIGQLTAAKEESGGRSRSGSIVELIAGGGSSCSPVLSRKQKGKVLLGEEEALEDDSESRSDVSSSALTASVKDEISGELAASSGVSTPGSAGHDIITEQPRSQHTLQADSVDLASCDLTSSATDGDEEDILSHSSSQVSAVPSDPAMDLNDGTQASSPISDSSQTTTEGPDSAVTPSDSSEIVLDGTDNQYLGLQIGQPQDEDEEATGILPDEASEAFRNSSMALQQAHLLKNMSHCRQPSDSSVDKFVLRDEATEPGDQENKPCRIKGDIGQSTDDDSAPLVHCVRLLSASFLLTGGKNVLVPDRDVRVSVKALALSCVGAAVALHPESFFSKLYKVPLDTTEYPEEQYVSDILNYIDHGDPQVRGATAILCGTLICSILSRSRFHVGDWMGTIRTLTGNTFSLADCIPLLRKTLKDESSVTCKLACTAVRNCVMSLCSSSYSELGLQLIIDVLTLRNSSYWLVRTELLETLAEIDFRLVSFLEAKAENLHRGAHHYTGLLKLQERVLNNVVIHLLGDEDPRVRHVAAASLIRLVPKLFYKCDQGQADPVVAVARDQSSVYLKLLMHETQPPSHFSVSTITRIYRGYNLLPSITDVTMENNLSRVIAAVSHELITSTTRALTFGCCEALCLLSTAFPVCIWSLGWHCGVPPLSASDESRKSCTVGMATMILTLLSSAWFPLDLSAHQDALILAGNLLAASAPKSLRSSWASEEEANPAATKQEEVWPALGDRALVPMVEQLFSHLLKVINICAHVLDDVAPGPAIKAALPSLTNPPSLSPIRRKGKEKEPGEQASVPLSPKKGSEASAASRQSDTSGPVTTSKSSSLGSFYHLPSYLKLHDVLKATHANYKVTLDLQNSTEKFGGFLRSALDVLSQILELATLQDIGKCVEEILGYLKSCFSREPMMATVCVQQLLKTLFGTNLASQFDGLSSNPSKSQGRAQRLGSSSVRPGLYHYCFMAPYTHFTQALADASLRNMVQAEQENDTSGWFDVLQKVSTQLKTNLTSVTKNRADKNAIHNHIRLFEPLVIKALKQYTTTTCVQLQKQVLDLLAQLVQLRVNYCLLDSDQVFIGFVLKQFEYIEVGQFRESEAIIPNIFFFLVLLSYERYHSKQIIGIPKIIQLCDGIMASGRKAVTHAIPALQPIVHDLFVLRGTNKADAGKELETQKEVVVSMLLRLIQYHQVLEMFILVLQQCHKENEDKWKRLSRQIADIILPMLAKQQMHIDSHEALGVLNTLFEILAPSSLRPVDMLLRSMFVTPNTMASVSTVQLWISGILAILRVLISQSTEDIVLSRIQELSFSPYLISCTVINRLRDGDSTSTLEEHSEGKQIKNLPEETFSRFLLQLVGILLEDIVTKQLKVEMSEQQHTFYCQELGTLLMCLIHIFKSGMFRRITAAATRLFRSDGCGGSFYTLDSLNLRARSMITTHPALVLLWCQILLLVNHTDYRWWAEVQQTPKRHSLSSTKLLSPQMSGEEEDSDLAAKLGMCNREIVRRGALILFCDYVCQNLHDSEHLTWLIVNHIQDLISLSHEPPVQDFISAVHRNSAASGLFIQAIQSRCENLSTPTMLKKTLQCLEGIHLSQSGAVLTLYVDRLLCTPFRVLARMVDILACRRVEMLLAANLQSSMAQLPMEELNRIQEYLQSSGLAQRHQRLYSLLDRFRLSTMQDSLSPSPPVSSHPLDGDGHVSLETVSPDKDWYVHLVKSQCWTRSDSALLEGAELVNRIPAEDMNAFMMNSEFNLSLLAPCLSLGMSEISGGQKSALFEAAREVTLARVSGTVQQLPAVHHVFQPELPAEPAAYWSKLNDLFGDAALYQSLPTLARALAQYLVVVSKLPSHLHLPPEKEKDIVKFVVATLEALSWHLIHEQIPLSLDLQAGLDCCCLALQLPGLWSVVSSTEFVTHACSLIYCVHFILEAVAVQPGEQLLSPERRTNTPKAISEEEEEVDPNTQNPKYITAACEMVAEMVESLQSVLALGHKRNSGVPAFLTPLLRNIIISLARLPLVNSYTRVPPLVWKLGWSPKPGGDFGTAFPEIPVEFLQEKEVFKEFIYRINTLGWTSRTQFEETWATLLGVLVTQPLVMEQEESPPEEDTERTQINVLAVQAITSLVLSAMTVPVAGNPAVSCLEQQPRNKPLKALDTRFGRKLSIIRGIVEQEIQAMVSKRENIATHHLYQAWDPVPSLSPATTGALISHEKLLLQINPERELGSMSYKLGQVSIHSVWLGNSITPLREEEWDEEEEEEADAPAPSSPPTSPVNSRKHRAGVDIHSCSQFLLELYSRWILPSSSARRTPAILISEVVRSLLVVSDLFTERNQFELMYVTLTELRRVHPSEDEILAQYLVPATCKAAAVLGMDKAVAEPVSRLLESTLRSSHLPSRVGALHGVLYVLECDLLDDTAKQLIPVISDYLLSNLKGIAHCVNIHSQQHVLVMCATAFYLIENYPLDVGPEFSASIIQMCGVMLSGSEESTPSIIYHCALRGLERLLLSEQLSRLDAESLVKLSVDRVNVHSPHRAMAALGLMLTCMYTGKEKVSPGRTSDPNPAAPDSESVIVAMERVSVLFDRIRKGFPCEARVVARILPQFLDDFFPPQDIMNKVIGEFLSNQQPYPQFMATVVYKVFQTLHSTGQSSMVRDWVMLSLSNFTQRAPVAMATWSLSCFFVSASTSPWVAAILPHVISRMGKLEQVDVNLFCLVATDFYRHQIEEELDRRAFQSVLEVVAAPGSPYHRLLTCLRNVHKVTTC

Molecule	FRET/donor ratio in aggregates with Q71 [1]	FRET/donor ratio in foci (FRET or BRET)
DNAJB6b fused to mVenus-mCherry at its N-terminus (VC-DNAJB6) (from UniProt O75190-2 1-241) (natural protein)	0.6	–
FUS R521C fused to mVenus-mCherry at its N-terminus (VC-FUSR521C) (natural protein) MASNDYTQQATQSYGAYPTQPGQGYSQQSSQPYGQQSYSGYSQSTDTSGYGQSSYSSYGQSQNTGYGTQSTPQGYGSTGGYGSSQSSQSSYGQQSSYPGYGQQPAPSSTSGSYGSSSQSSSYGQPQSGSYSQQPSYGGQQQSYGQQQSYNPPQGYGQQNQYNSSSGGGGGGGGGGNYGQDQSSMSSGGGSGGGYGNQDQSGGGGSGGYGQQDRGGRGRGGSGGGGGGGGGGYNRSSGGYEPRGRGGGRGGRGGMGGSDRGGFNKFGGPRDQGSRHDSEQDNSDNNTIFVQGLGENVTIESVADYFKQIGIIKTNKKTGQPMINLYTDRETGKLKGEATVSFDDPPSAKAAIDWFDGKEFSGNPIKVSFATRRADFNRGGGNGRGGRGRGGPMGRGGYGGGGSGGGGRGGFPSGGGGGGGQQRAGDWKCPNPTCENMNFSWRNECNQCKAPKPDGPGGGPGGSHMGGNYGDDRRGGRGGYDRGGYRGRGGDRGGFRGGRGGGDRGGFGPGKMDSRGEHRQDCRERPY	–	~0.66
